Experimental findings from paper PMC8857485, “Prostate secretory protein 94 inhibits sterol binding and export by the mammalian CAP protein CRISP2 in a calcium-sensitive manner” (The Journal of Biological Chemistry, 2022) are described below.

First the molecules themselves.
B1: CRISP2 (cysteine-rich secretory protein 2), C-terminal polyhistidine tag [modified: RED-tris-NTA fluorescent label on the His tag; RED-tris-NTA fluorescent label on the His tag] [human] / prostate secretory protein of … (parent)
chain 1: KDPAFTALLTTQLQVQREIVNKHNELRKAVSPPASNMLKMEWSREVTTNAQRWANKCTLQHSDPEDRKTSTRCGENLYMSSDPTSWSSAIQSWYDEILDFVYGVGPKSPNAVVGHYTQLVWYSTYQVGCGIAYCPNQDSLKYYYVCQYCPAGNNMNRKNTPYQQGTPCAGCPDDCDKGLCTNSCQYQDLLSNCDSLKNTAGCEHELLKEKCKATCLCENKIY
chain 2: SCYFIPNEGVPGDSTRKCMDLKGNKHPINSEWQTDNCETCTCYETEISCCTLVSTPVGYDKDNCQRIFKKEDCKYIVVEKKDPKKTCSVSEWII

The variants in this experiment derive from B1. Kind of experiment: microscale thermophoresis. The conditions noted are these: with prostate secretory protein of 94 amino acids (PSP94), measurements in triplicates, PSP94 titrated (x axis PSP94 [nM]). For orientation: In MST a laser heats a spot of the sample, and binding alters the fluorescence response.
One may read the Kd as the equilibrium constant for the complex coming apart. Consider chain 1 N76P L77G, for which the Kd is 4 nM.
